From patent publication US20250188194A1, “Method of treatment” (Nucleus Therapeutics Pty Ltd, priority 2021, published 2025)

Columns and labels:
Format in all cases: cell-based, human
[1] = system: differentiated PLB-985 cells; assay: Quantifying DNA released (adherent NET-DNA) after PMA stimulation by spectrophotometry; conditions: 10 μM DX1 one hour, 300 nM PMA four hours; PMA control 4.50±0.14; N=3
Method: The results of the DAPI and SYTOX™ Green staining studies in FIG. 2C, 2D are consistent with DX1-mediated inhibition of chromatin decondensation and DNA release by differentiated PLB-985 cells. To further probe this effect, DNA-protein release was measured by differentiated PLB-985 cells after PMA stimulation by resuspending and quantifying DNA-protein complexes adherent to wells by spectrophotometry using a previously described protocol for isolation and quantification of NET-DNA in cell culture. This assay is based on the concept that intact cells for the most part remain in suspension, while DNA-protein complexes released in NETs are at least partially adhered to wells. This distinction allows for separation of intact cells from adherent NET-DNA by aspiration of the cell culture supernatants, followed by resuspension of adherent DNA-protein complexes and quantification by spectrophotometry.
Next, the ability of this assay to detect the effect of a known NETosis inhibitor on DNA release by differentiated PLB-985 cells stimulated by PMA was verified. […] Differentiated PLB-985 cells were treated with 0-50 μM of GSK484 for one hour prior to stimulation with PMA, followed by quantification of adherent DNA by spectrophotometry. […]

[2] = system: differentiated PLB-985 cells; assay: H3Cit western blot; conditions: 10 μM DX1 one hour, then PMA; PMA control 0.64±0.06; N=3
Method: FIGS. 5A-5B. […] Differentiated PLB-985 cells were pre-treated with control media or media containing 10 μM DX1 for one hour, followed by stimulation with PMA. Cellular contents were isolated and analyzed by H3Cit western blot. Representative cropped blot is shown in (5A), and quantification of H3Cit band intensity normalized to actin in (5B). […]
Histone citrullination by PAD4 is a key step in NETosis that is targeted by the selective PAD4 inhibitor GSK484. Differentiated PLB-985 cells treated with control or 10 μM DX1 for one hour were stimulated by PMA, and cell contents were isolated and analyzed for H3Cit content by western blot with normalization to actin. […]
Differentiated PLB-985 cells at 8×10^5 cells/well in 12-well plates were incubated with control buffer or buffer containing 10 μM DX1 for one hour and then stimulated by addition of 300 nM PMA for two hours. Cells were isolated by centrifugation, lysed in RIPA buffer, and H3Cit content determined by western blot using anti-H3Cit primary (#AB5103, abcam, Cambridge, MA, USA) and goat anti-rabbit HRP-conjugated secondary antibody at 1:5000 (#AB205718, abcam). H3Cit band intensities normalized to actin loading control were determined by ImageJ (NIH, Bethesda, MD).

[3] = system: differentiated PLB-985 cells; assay: Quantifying extracellular DNA by SYTOX Green stain after PMA stimulation; conditions: one hour pre-treatment with 10 μM DX1, 300 nM PMA two hours, plate reader; N=3
Method: FIGS. 2A-2D. DAPI and SYTOX™ Green stains support the conclusion that DX1inhibits chromatin decondensation and DNA release by differentiated PLB-985 cells stimulated with PMA. (2A) Chromatin decondensation in differentiated PLB-985 cells after stimulation with PMA±a one hour pre-treatment with 10 μM DX1 was visualized by DAPI stain. Left panel: Control cells with decondensed DAPI stain after PMA stimulation. Right panel: DX1-treated cells retaining condensed DAPI signal after PMA stimulation. Bar: 25 μm. (2B) Quantification of the percentage of differentiated PLB-985 cells with decondensed DAPI stain after PMA stimulation. […] (2C) DNA release by differentiated PLB-985 cells after stimulation with PMA±a one hour pre-treatment with 10 μM DX1 was visualized by addition of the impermeant DNA stain SYTOX™ Green. Representative images are shown. Bar: 25 μm. (2D) SYTOX™ Green signal in wells containing differentiated PLB-985 cells stimulated with PMA±a one hour pre-treatment with 10 […] was quantified by plate reader. […]
SYTOX™ Green is an impermeant fluorescent DNA stain that facilitates visualization of DNA released in NETosis. Differentiated PLB-985 cells treated with control or 10 μM DX1 and stimulated with PMA were exposed to SYTOX™ Green, and fluorescence was visualized under fluorescence microscopy and quantified by plate reader. […]

B1: DX1: 3E10 derivative, a di-scFv having the sequence SEQ ID NO: 38; nuclear-penetrating anti-DNA binding protein (protein)
scFv: DIQMTQSPSSLSASLGDRATITCRASKTVSTSSYSYMHWYQQKPGQPPKLLIKYASYLESGVPSRFSGSGSGTDFTLTISSLQPEDAATYYCQHSREFPWTFGGGTKVEIKTVDAAPGGGGSGGGGSGGGGSEVQLVESGGGLVQPGGSLRLSCAASGFTFSNYGMHWVRQAPGKGLEWVSYISSGSSTIYYADSVKGRFTISRDNAKNSLYLQMNSLRAEDTAVYYCARRGLLLDYWGQGTTVTVSSASTKGPSVFPLAPLESTGSDIQMTQSPSSLSASLGDRATITCRASKTVSTSSYSYMHWYQQKPGQPPKLLIKYASYLESGVPSRFSGSGSGTDFTLTISSLQPEDAATYYCQHSREFPWTFGGGTKVEIKTVDAAPGGGGSGGGGSGGGGSEVQLVESGGGLVQPGGSLRLSCAASGFTFSNYGMHWVRQAPGKGLEWVSYISSGSSTIYYADSVKGRFTISRDNAKNSLYLQMNSLRAEDTAVYYCARRGLLLDYWGQGTTVTVSS
modifications: DX1 sequence
released/adherent DNA content relative to unstimulated control cells [1]: 1.80±0.11 | intracellular H3Cit content normalized to actin, relative to unstimulated cells [2]: 1.46±0.20 | SYTOX Green signal relative to control [3]: 0.40±0.01
